Results published in publication PMC12775136.

Target: UPF1-Hel (human)

- extent of linear RNA substrate unwound by UPF1-Hel (fluorescence-based nucleic acid unwinding assay) with SLBPfl at equimolar amount to 3-fold molar excess; further decrease at 3-fold excess: 66%
Substance: full-length SLBP (SLBPfl) (from UniProt Q14493 1-270) (natural protein)
